Target: the molecule itself
Assay: crystal structure

B1: ClpP from Bacillus subtilis (BsClpP) (enzyme)
chain: not shown
- stoichiometry N: 14
